This note sets out measurements from a protein production outcome set (Wang et al. 2014).

This data set can be described thus: label from the status in PepcDB records.

For the sequence “SEDTMDRINKDHDHTTSVASRFILADVITSTAFSNASGDINTYASSYIEYEVGVDNQLYYAEVRENEPSSSSTFNNSWNGIYSSLKNARIIIDQCGEGGRDHGNDVTRGMAEVMAAYNCALIADFFGDAPCSQAALVDEKGSPVYMTPKMDTQQEIYTQIISYLDDAIANLQKEDLADVTEQDFLYAGDADKWLKFAYGLKARYTMRLINRSSNKSADYEKVLDYVSKSFTSADDQAAFDIYDSNNINPFYGFYNSRAGFGASTSLGTKLLAYNDPRANRAFFTPIVDKKRSQVAANDPSLVPAPNGSPDQSTSKYGISAFVYAKTAPTLLMSYHELMFLKAEALCRLNRDAEDALKEAVVAGLLNAENSISIAIKELGSGLNTNSSEVITETSAGKYFDDVVKAKYAANPLQETMIQKYLAMWGASGEATETYNDFRRMKGLNENFITLTNPNNSSKFPLRYPYGNSDTAANPEVKAAYGNGDYVYSEPVWWAGGSR”, the protein production entry was “not failed”. For “SEKPAGSLQEQALKRKERLKALRDRQLQGHAPADGEPERKRALEDTETEDRHRELKLRNYTPEDVELKERQVPKAKPASVDDKVKDQLEAANPEPVIEEVDLANLAPRKPDWDLKRDVAKKLEKLERRTQKAIAELIRERLKGSEEELAGAVGAVGVEEGDSD”, the protein production result is listed as “failed”. Turning to “SERNDIINFKALEKELQAALTADEKYKRENAAKLRAVEQRVASYEEFRGIVLASHLKPLERKDKMGGKRTVPWNCHTIQGRTFQDVATEISPEKAPLQPETSADFYRDWRRHLPSGPERYQALLQLGGPRLGCLFQTDVGFGLLGELLVALADHVGPADRAAVLGILCSLASTGRFTLNLSLLSRAERESCKGLFQKLQAMGNPRSVKEGLSWEEQGLEEQSGGLQEEERLLQELLELYQVD”, the protein production entry is recorded as “not failed”.

With “SERRLGVRAWVKENRGSFQPPVCNKLMHQEQLKVMFIGGPNTRKDYHIEEGEEVFYQLEGDMVLRVLEQGKHRDVVIRQGEIFLLPARVPHSPQRFANTVGLVVERRRLETELDGLRYYVGDTMDVLFEKWFYCKDLGTQLAPIIQEFFSSEQYRTGKPIPDQLLKEPPFPLSTRSIMEPMSLDAWLDSHHRELQAGTPLSLFGDTYETQVIAYGQGSSEGLRQNVDVWLWQLEGSSVVTMGGRRLSLAPDDSLLVLAGTSYAWERTQGSVALSVTQDPACKKPLG”, the protein production result is listed as “not failed”. To “SEVRWCATSDPEQHKCGNMSEAFREAGIQPSLLCVRGTSADHCVQLIAAQEADAITLDGGAIYEAGKEHGLKPVVGEVYDQEVGTSYYAVAVVRRSSHVTIDTLKGVKSCHTGINRTVGWNVPVGYLVESGRLSVMGCDVLKAVSDYFGGSCVPGAGETSYSESLCRLCRGDSSGEGVCDKSPLERYYDYSGAFRCLAEGAGDVAFVKHSTVLENTDGKTLPSWGQALLSQDFELLCRDGSRADVTEWRQCHLARVPAHAVVVRADTDGGLIFRLLNEGQRLFSHEGSSFQMFSSEAYGQKDLLFKDSTSELVPIATQTYEAWLGHEYLHAMKGLLCDPNRLPPYLRWCVLSTPEIQKCGDMAVAFRRQRLKPEIQCVSAKSPQHCMERIQAEQVDAVTLSGEDIYTAGKKYGLVPAAGEHYAPEDSSNSYYVVAVVRRDSSHAFTLDELRGKRSCHAGFGSPAGWDVPVGALIQRGFIRPKDCDVLTAVSEFFNASCVPVNNPKNYPSSLCALCVGDEQGRNKCVGNSQERYYGYRGAFRCLVENAGDVAFVRHTTVFDNTNGHNSEPWAAELRSEDYELLCPNGARAEVSQFAACNLAQIPPHAVMVRPDTNIFTVYGLLDKAQDLFGDDHNKNGFKMFDSSNYHGQDLLFKDATVRAVPVGEKTTYRGWLGLDYVAALEGMSSQQC” belongs “not failed”; to “SGGGGKAWPTHVVCSDSGLEVLYQSCDPLQDFGFSVEKCSKQLKSNINIRFGIILREDIKELFLDLALMSQGSSVLNFSYPICEAALPKFSFCGRRKGEQIYYAGPVNNPEFTIPQGEYQVLLELYTEKRSTVACANATIMCS”, “failed”; to “SGHFSALPSLPVGSHAKVSSPQPRGPRYAEGTFISDYSIAMDKIHQQDFVNWLLAQKGKKNDWKHNITQREARALELASQANRKEEEAVEPQSSPAKNPSDEDLLRDLLIQELLACLLDQTNLCRLRSR”, “failed”. For “SGNTTSERVSGERHGAKAARAEGGGHGPGKEHKIMVGSTDDPSVFSLPDSKLPGDKEFVPWQQDLDDSVKPTQQARPTVIRWSEGGKEVFISGSFNNWSTKIPLIKSHNDFVAILDLPEGEHQYKFFVDGQWVHDPSEPVVTSQLGTINNLIHVKKSDFEVFDALKLDSMESSETSCRV”, the protein production result was “failed”.

In the case of “SGRKRLITDSYPVVKRREGPAGHSKGELAPELGEEPQPRDEEEAELELLRQFDLAWQYGPCTGITRLQRWCRAKHMGLEPPPEVWQVLKTHPGDPRFQCSLWHLYPL”, the protein production result is “failed”. For “SGSEPTKVMVAVNASTIKDYPNPSISCKRAFEWTLEKIVRSNTSDFKILLLHVQVVDEDGFDDVDSIYASPEDFRDMRQSNKAKGLHLLEFFVNKCHEIGVGCEAWIKTGDPKDVICQEVKRVRPDFLVVGSRGLGRFQKVFVGTVSAFCVKHAECPVMTIKRNADETPSDPADD”, the protein production entry is on record as “not failed”. To “SIDLRLQYLATRELRNAIAEQDAKAGSLVIMDVKTGEVLAMVNQPTYNPNNRRSMFPAAMRNRAIIDVFEPGSTVKPISMSAALQSGRWKPTDKVEVYPGSLQIGRYTIKDVSRSEGPILDLTGILINSSNVGMSKIAFDIGGEAIYRVMSQVGLGQYTGLGFPGERVGNLPNHREWRKAETATLSYGYGVSVTALQLVHAYAALANDGKMVPLSIIKVDKTPEAVQAIPKEVAETVQGMLQQVIEAPRGVFRAQVPFYHVAGKSGTARKATVGAKGYTENAYRSLFAGFGPMSDPRYAIVVVIDEPRKGGYFGGLVSAPVFSNVMSGTLRLMNVPPDNLPPPAPAPAVPSQVNAAAAKGGRG” belongs “failed”; to “SIKENSYFAGGVKSLGFNQHGQDVSVGVMLPGEYTFGTQAPERMTVVKGALVVKRVGEADWTTYSSGESFDVEGNSSFELQVKDATAYLCEYL”, “not failed”. Consider “SILKIEKVLKRMREIKNELLQAQNPSELYLSSKTELQGLIGQLDEVSLEKNPCIREARRRAVIEVQTLITYIDLKE”, for which the protein production result was “not failed”. On to “SIVIIFNPNSTGDAPELAQQLHGKLKELLTYQPEITLQPTEHAGHAVDLAREAASKGGDVLVVSVSGDGGYNEVVNGVMQADNPRAVAAVLAAGNANDHSRIIGTKPLEEAIAEGRVHNIDLLRIHTG”, for which the protein production entry is recorded as “failed”. To “SKAWLHQYSVVGRKIPTQEEPEPPIYRLKIFAPNVVNAKSRFWYFLRKLKRVKKSSGEILNISEIFEKKSTQVKNYGIWIRYKSRSDTINMYREYRDVTVNGAVEQMYKDMSGRHRARWSSIWVLKAMPVAAKDCRRSKVTQFHDSKIKFALPHMRPRAPLKKYNTPFKAKRPTTIVQ” belongs “not failed”; to “SKELKVLVLCAGSGTSAQLANAINEGANLTEVRVIANSGAYGAHYDIMGVYDLIILAPQVRSYYREMKVDAERLGIQIVATRGMEYIHLTKSPSKALQFVLEHYQ”, “not failed”.

Consider “SKKVIGKKRAHAEDDELDPMDPSSYSDAPRGGWVVGLKGVQPRAADTTASGPLFQQRPYPSPGAVLRRNAEVASSQKKKPNSQFTEITKRGDGSDGLGDAD”, for which the protein production result is “failed”.

“SKQKLVLASGSPRRLELLHQIGIEPARLMPMDIDETPVKLEHPRTLCRRLSQQKAEAAQAALKSEQAWKDAYVLGSDTVVAVGRRIVGKAEYTEEASAALHLLSGRSHWVYTGICLVTPDGKIRQKVAETKVRFKRLSTREIDAYIASGQWRGKAGAYGIQGIAGAFVQKLTGSYTNVVGLPLYETMSLLSGEGFEV”: the protein production entry is “failed”. Regarding “SKSNKIFVGGIPHNCGETELREYFKKFGVVTEVVMIYDAEKQRPRGFGFITFEDEQSVDQAVNMHFHDIMGKKVEVKRAEPRDSKS”, the protein production result is on record as “not failed”. Take “SLDVQRVGKAGLHRVDSKKQQTAAGVSFSEVMGKQRDEKAYERLQALMSKIDDQGKLLSETRTIEELRKYKELVKEFVGDAVELGLRLEERRGFNRRGRTKIYKIVKEVDRKLLDLTDAVLAKEKKGLDILNMVGEIKGLLINIYA”: the protein production result is reported as “not failed”.

On to “SLENVLASHSKMQGALEKVQIELGRRDSEIAGLKKERDLNQQRVQKLEAEVDQWQARMLVMEDQHNSEIESLQKALGVAREDNRKLAMSLEQALQTNNHLQTKLDHIQEQLESKELERQNLETFKDRMTEESKVEAELHAERIEALRKQFQTERETTKKVAQREVAELKKALDEANFRSVEVSRTNRELRQKLAELEKILESNKEKIKNQKTQIKLHLSAKANNAQNIERMKVVWETSSHFLDTL”, for which the protein production entry was “not failed”.

Regarding “SLERSVNGKIQKADIFSVPVSFNASEVKHVDTPQEALAASLNKFGEVNLEYMENLSEIDIQELLKQLDTRIFYNPMMKNYEIKDRFIAGNVVAKAEWIENYLKDYPDDDASRKSLEALRKAIPEPISFELLDFNLGERWIPMSVYEEFAGYLFETKAHIHYTESIDEFSVNFESTNANITDRYYVKGEKRGYYGNDLLKHALHNTVPDITKTVQDEEGNDIKVRDAEAIQLADAKINEIRSAFTGWLNEQLPEFKQNLADMYNRKFNCYVRPDYDGSLQSFPFLDLKGLGIPNLYDSQ”, the protein production result is reported as “failed”.

As to “SLKLAKNVEIEIRTKIHPTESEDKVLKAIRNIFPDAEIEISEEGEVYGRAYSLDRFRELLRKQRILDTARSEILKGRNGKEVTIYLNKQTATVSRINFCDENAVLSPIKVTFRLNNIPFSRFLDYIAPETKDGRPVKEIDKL”, the protein production entry is “not failed”. Turning to “SLKLFLFEFATCGERIEDSTAVEGLAMFKSAFDGFKNYYEITGFVRPEFSCLFTLPVDSMDSMEKYLEKSDAFLIIAPEDDFLLYTLTKKAEKYCENLGSSSRAIAVTSDKWELYKKLRGEVQVPQTSLRPLDCKFIIKPRTACAGEGIGFSDEVPDGHIAQEFIEGINLSVSLAVGEDVKCLSVNEQIINNFRYAGAVVPARISDEVKREVVEEAVRAVECVEGLNGYVGVDIVYSDQPYVIEINARLTTPVVAFSRAYGASVADLLAGGEVKHVRRQMVRKSKSAEKPYVSVGDYTLEIIDLD”, the protein production entry is “not failed”. In the case of “SLNEGQEMEEQFALLLETLKNQQMNEFRELFLALHIYEQGQFYQSLDEKDRQHLYNYLSPKELADMFDVIEEDNENMKDYLAEMRPSYAADMLAEMYTDNAVDLLNMLDKSQKAKYLSLLSSEEAGEIKELLHYEDETAGAIMTTEFVSIVANQTVRSAMYVLKNQADMAETIYYVYVVDQENHLVGVISLRDLIVNDDDTLIADILNERVISVHVGDDQEDVAQTIRDYDFLAVPVTDYDDHLLGIVTVDDIIDVIDDEAASDYSGLAGVDVEEVSENPLKAASK”, the protein production result is reported as “not failed”. Turning to “SLPHCETLLLEPIEGVLRITLNRPQSRNAMSLAMVGELRAVLAAVRDDRSVRALVLRGADGHFCAGGDIKDMAGARAAGAEAYRTLNRAFGSLLEEAQAAPQLLVALVEGAVLGGGFGLACVSDVAIAAADAQFGLPETSLGILPAQIAPFVVRRIGLTQARRLALTAARFDGREALRLGLVHFCEADADALEQRLEETLEQLRRCAPNANAATKALLLASESGELGALLDDAARQFAEAVGGAEGS”, the protein production entry is “failed”.

“SLRKERARSAEEPWTQNQQKLLELALQQYPRGSSDCWDKIARCVPSKSKEDCIARYKLLV”: the protein production entry is given as “not failed”.
